One assay concerns the target T1, TG7 (human, UniProt Q96PF1).
T1 construct: recombinant, Zedira; also called recombinant human TG7
T1 sequence (enzyme, looked up): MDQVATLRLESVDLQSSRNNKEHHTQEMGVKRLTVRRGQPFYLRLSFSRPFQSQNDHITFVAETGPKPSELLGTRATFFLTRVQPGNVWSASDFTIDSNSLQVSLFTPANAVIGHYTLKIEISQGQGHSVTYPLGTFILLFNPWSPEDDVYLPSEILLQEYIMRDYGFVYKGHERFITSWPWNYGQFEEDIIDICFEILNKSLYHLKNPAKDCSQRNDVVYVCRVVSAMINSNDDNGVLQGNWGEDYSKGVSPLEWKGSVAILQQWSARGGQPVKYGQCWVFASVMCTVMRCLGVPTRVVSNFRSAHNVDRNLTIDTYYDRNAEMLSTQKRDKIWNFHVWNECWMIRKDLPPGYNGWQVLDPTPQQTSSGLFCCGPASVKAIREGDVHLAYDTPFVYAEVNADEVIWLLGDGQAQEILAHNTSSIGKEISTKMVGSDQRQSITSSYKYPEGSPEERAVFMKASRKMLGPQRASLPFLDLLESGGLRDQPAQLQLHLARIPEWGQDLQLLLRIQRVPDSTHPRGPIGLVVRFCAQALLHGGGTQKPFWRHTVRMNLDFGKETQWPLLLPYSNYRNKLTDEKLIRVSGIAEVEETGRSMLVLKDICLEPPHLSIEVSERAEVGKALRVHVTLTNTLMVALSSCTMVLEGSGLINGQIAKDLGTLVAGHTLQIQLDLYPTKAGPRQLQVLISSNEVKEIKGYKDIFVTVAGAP
Put plainly: ELISA, purified IgG at 0.1 ug/ml, plates coated with 100 ng of each TG [panel B]. The method, then:
(§1) Conditioned medium or purified IgG were tested for reactivity to transglutaminase family members. The ability of each to bind to each transglutaminase (TG1, TG2, TG3, TG5, TG7 and Factor XIIIa; all Zedira) was determined using a plate binding assay. Microtiter plates (Costar, Cambridge, UK) were coated with recombinant TG (Zedira, Darmstadt, Germany) in 50 μl of 0.1 M bicarbonate/carbonate buffer (pH 9.6) overnight at 4° C. Plates were blocked for 2 h at 37° C. with 200 μl PBS containing 3% w/v BSA. Plates were washed three times with PBS containing 0.05% Tween 20 (washing buffer) and 100 μl of diluted conditioned medium (dilution 1:5 to 1:20) or purified anti-TG2 catalytic core mAbs was added. Plates were incubated for a further 1 h at room temperature. The washing step was repeated and anti-mouse gamma chain-horseradish peroxidase (1:5000) in PBS containing 0.05% Tween 20 (v:v) and 1% BSA (w:v) (Sigma, Poole UK) was added for 1 h. […] The reaction was stopped by adding 25 μl of 0.1 M H_2SO_4 and the absorbance at 450 nm was determined.

For another assay, the target named is T2, TG1 (human, UniProt P22735).
T2 construct: recombinant, Zedira; also called recombinant human TG1; Keratinocyte Transglutaminase
T2 sequence (enzyme, looked up): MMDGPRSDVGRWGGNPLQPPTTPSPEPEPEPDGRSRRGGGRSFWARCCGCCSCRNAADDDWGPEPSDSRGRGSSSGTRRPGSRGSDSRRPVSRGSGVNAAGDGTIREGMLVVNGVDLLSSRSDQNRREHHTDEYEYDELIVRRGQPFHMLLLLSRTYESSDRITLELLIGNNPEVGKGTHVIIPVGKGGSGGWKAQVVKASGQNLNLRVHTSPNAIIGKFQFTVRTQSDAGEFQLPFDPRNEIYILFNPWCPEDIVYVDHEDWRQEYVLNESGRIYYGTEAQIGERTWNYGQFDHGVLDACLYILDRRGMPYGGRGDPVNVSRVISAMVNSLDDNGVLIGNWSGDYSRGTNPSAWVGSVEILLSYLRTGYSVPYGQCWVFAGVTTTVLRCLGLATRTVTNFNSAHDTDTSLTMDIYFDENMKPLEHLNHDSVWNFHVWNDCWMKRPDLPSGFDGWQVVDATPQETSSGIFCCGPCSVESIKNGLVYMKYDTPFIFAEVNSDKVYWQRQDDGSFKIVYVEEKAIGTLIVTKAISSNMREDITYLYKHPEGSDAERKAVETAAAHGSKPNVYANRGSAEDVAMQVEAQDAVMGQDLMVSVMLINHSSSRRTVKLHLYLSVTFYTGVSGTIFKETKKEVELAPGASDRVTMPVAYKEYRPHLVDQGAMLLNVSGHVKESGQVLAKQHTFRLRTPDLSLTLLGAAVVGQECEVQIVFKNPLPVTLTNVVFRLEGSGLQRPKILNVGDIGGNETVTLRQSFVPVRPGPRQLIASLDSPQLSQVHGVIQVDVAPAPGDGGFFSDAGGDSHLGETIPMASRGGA
Nature of the assay: ELISA, hybridoma conditioned medium, plates coated with recombinant TG (100 ng/well) [panel A]. The method, then:
as §1

The next assay has as its target T3, mouse TG2 (mouse, UniProt P21981 1-686, limits assumed).
T3 sequence: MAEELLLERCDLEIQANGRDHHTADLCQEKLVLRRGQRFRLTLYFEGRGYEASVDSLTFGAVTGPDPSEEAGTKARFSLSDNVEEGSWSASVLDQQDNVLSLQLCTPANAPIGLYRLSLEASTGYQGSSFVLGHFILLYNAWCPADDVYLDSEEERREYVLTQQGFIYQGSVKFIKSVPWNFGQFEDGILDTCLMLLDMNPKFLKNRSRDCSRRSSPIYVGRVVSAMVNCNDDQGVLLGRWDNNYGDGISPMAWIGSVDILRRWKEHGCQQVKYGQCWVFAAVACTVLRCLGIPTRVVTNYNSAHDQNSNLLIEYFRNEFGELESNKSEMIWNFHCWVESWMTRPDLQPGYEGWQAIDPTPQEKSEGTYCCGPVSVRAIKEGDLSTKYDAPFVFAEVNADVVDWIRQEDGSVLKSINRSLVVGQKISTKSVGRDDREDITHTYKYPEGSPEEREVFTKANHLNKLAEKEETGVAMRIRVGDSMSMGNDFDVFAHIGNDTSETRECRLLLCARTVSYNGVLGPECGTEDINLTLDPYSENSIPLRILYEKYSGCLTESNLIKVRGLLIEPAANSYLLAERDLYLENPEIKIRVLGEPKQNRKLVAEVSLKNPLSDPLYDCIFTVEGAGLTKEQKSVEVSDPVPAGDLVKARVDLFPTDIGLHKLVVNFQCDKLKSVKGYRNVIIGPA
Put plainly: western blot and ELISA. A general note: In western blotting, separated proteins are transferred to a membrane and probed.

B1: AG9 murine monoclonal antibody (antibody, V domains shown)
VH: EVQLQQSGPELVKPGASVKMSCRASGYTFTTYVIHWVKQKPGQGLEWIGYINPYNDGARYNEKFKGKATLTSDKSSTTAYMELSSLTSEDSAVYYCARLSSDYWGQGTTLTVSS
VL: DVLMTQNPLSLPVSLGDQASISCRSSRSIEHSNGNTYLEWYLQKPGQSPKFLIYKVSNRFSGVPDRFSGSGSGTDFTLRISSVEAEDLGVYYCFQGSHVPFTFGGGTKLEIK
notes: Mouse hybridoma IgG; heavy chain amplified with primer MHCG1, kappa light chain
In the case of B1, the binding result was “no binding (tested: 0.1 ug/ml)” with TG7 and “no binding” in the assay with TG1.

B2: AH3 murine monoclonal antibody (antibody, V domains shown)
VH: EVQLQQSGPELVKPGASVKMSCRASGYTFTTYVIHWVKQKPGQGLEWIGYINPYNDGARYNEKFKGKATLTSDKSSTTAYMELSSLTSEDSAVYYCARLSSDYWGQGTTLTVSS
VL: DVLMTQNPLSLPVSLGDQASISCRSSRSIEHSNGNTYLEWYLQKPGQSPKFLIYKVSNRFSGVPDRFSGSGSGTDFTLRISSVEAEDLGVYYCFQGSHVPFTFGGGTKLEIK
notes: Mouse hybridoma IgG; heavy chain amplified with primer MHCG2B, kappa light chain
On to B2, for which the results for the binding result with TG7 and in the assay with TG1 were “no binding (tested: 0.1 ug/ml)” and “no binding”, respectively.

B3: EH6 murine monoclonal antibody (antibody, V domains shown)
VH: EVQLQQSGPELVKPGASVKMSCKASGYTFTSYVMHWVKQKPGQGLEWIGFINPYNDGTKYNEKFKGKATLTSDKASTTAYMELSSLTSEDSAVYYCARFSSGYWGQGTTLTVSS
VL: DVLMTQTPLSLPVSLGDQASISCRSSQSIVHSNGNTYLEWYLQKPGQSPKLLIYKVSNRFSGVPDRFSGSGSGTDFTLKISRVGAEDLGVYYCLQVSHVPFTFGSGTKLEIK
notes: as for B2
B3: the figures for the binding result in the assay with mouse TG2, with TG7 and with TG1 were “binds”, “no binding (tested: 0.1 ug/ml)” and “no binding”, respectively.

B4: JE12 murine monoclonal antibody (antibody, V domains shown)
VH: EVQLQQSGPELVKPGASVKMSCKASGYRFTSYVMHWVKQKSGQGLEWIGYINPYNDGAKYNEKFKGKATLTSDKSSSTAYMELSSLTSEDSAVYYCARLSSDYWGQGTTLTVSS
VL: DVLMTQNPLSLPVSLGDQASISCRSSQSIEHINGNTYLEWYLQKPGQSPKFLIYKVSNRFSGVPDRFSGSGSGTDFTLRISRVEAEDLGIYYCFQGSHVPFTFGGGTKLEIK
notes: as for B1
B4: the values for the binding result in the assay with mouse TG2, with TG7 and with TG1 were “binds”, “no binding (tested: 0.1 ug/ml)” and “no binding”, respectively.

B5: AB1 murine monoclonal antibody (antibody, V domains shown)
VH: EVQLVESGGGLVKPGGSLKLSCAASGFTLSSSAMSWVRQTPDRRLEWVATISVGGGKTYYPDSVKGRFTISRDNAKNTLYLQMNSLRSEDTAMYYCAKLISLYWGQGTTLTVSS
VL: DIKMTQSPSSMYASLGERVTITCKASQDINSYLTWFQQKPGKSPKTLIYRTNRLFDGVPSRFSGSGSGQDFFLTISSLEYEDMGIYYCLQYDDFPYTFGGGTKLEIK
notes: Mouse hybridoma IgG; heavy chain amplified with constant region primer MHCG1, kappa light chain; also called mAB003
For the molecule B5, the binding result is on record as “no binding (tested: 0.1 ug/ml)” with TG7 and “no binding” with TG1.

B6: DC1 murine monoclonal antibody (antibody, V domains shown)
VH: EVQLVESGGGLVKPGGSLKLSCAASGFTLSTHAMSWVRQTPEKRLEWVATISSGGRSTYYPDSVKGRFTISRDNVKNTLYLQLSSLRSEDTAVYFCARLISTYWGQGTTLTVSS
VL: DITMTQSPSSIYASLGERVTITCKASQDINSYLTWFQQKPGKSPKILIYLVNRLVDGVPSRFSGSGSGQDYALTISSLEYEDMGIYYCLQYDDFPYTFGGGTKLEIK
notes: Mouse hybridoma IgG; heavy chain amplified with primer MHCG1, kappa light chain; also called mDC001
With B6, the figures for the binding result with mouse TG2, with TG7 and in the assay with TG1 were “binds”, “no binding (tested: 0.1 ug/ml)” and “no binding”, respectively.

B7: BB7 murine monoclonal antibody (antibody, V domains shown)
VH: AVQLVESGGGLVKPGGSLKLSCAASGIIFSSSAMSWVRQTPEKRLEWVATISSGGRSTYYPDSVKGRFTVSRDSAKNTLYLQMDSLRSEDTAIYYCAKLISPYWGQGTTLTVSS
VL: AIKMTQSPSSMYASLGERVIITCKASQDINSYLTWFQQKPGKSPKTLIYLTNRLMDGVPSRFSGSGSGQEFLLTISGLEHEDMGIYYCLQYVDFPYTFGGGTKLEIK
notes: Mouse hybridoma IgG; heavy chain amplified with primer MHCG1, kappa light chain; also called mBB001
Consider B7, for which the binding result with mouse TG2 was “binds”; with TG1, “no binding”.

B8: DH2 murine monoclonal antibody (antibody, V domains shown)
VH: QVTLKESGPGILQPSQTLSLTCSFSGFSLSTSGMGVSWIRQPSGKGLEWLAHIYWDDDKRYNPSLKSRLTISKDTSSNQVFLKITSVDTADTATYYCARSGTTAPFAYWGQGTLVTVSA
VL: QIVLTQSPAIMSASPGEKVTMTCSASSSVSYMYWYQQKPGSSPRLLIYDTSNLASGVPVRFSGSGSGTSYSLTISRMEAEDAATFYCQQWSSSPLTFGAGTKLELK
notes: Mouse hybridoma IgG; heavy chain amplified with primer MHCG2B, kappa light chain; also called mDH001
Turning to B8, the values for the binding result with mouse TG2, with TG7 and with TG1 were “binds”, “no binding (tested: 0.1 ug/ml)” and “no binding”, respectively.

B9: DD9 murine monoclonal antibody (antibody, V domains shown)
VH: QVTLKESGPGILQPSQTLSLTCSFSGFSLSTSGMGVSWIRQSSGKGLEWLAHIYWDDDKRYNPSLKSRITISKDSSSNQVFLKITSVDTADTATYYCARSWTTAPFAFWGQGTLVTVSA
VL: QIVLTQSPAIMSASPGEKVTMTCSASSSVDYMYWYQQKPGSSPRLLIYDTSNLASGVPVRFSGSGSGTSYSLTISRMGAEDAATYYCQQWNSSPLTFGAGTKLELK
notes: Mouse hybridoma IgG; heavy chain amplified with primer MHCG2A, kappa light chain; also called mDD9001
With B9, the binding result in the assay with mouse TG2 was “binds”; in the assay with TG7, “no binding (tested: 0.1 ug/ml)”; in the assay with TG1 it was “no binding”.

Source of the values: patent publication US10005846 (LIFEARC, dated 2018).
